Paper PMC5355995

What was measured:
[1] = target: T1, Rex-His6 (Streptomyces avermitilis ATCC31267) (UniProt Q82E78); assay: EMSA; settings: EMSA: DIG Gel Shift Kit (Roche) binding buffer, 1 ug poly[d(I-C)] in 20 ul, 30 min at 25 C, 5% native PAGE in 0.5x TBE; footprinting: 400 ng DNA in 25 ul …
T1 sequence: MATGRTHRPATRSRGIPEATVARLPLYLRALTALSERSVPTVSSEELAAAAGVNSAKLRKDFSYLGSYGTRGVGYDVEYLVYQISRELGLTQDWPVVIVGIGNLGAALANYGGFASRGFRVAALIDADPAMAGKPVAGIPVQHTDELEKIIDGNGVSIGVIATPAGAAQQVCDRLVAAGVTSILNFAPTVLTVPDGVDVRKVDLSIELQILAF

[2] = target: T1, Rex-His6 (Streptomyces avermitilis ATCC31267); assay: DNase I footprinting; settings: EMSA: DIG Gel Shift Kit (Roche) binding buffer, 1 ug poly[d(I-C)] in 20 ul, 30 min at 25 C, 5% native PAGE in 0.5x TBE; footprinting: 400 ng DNA in 25 ul …

Sequence	binding [1]	binding [2]
CAGTTGCCACGGTGCTCCTGCGGGTAGCGCGGGGCTGCAGGCGGTCACACGTACCTAGACCGCCCCGTCGAAAGCAGGCTATGTCTTTGTGAACGCGTGCACAAAGATAGTGTCCGATTTGCCCGGCCAACGTGACCGGGGTCACGCGCCCCCGGCGTATGCGTATGGAACCGGCACACAGGCGCCTTCGTTCCTCACTCGACGGGGGCAAAACCGCACACACTCCTCAACGATCCACGCCCCCCGAGACCAAACCGCCCCCGATCCTAAGCGACTTTCCGGGCTGTTTGGACTACTC (double strand) [rex promoter probe]	binds	binds
GAGTCTCTACGTGGCGATCGAGACGGCCCGCAACACCGGCCTCCACAGAGAGCCAGAACCCCTCCTCAATCCAAAGGACCACGTCAGTCCGTCTGACGATCGGCCCTTCACTTGTTGAGGGATTCGTGAAAGCGTTCACATTCACAAGCAACCTGAATGTAATACCAAGGAGAGGTAGCAGCCATGGA (double strand) [wblE promoter EMSA probe]	binds	
GCTTCATGATCCTTCGCCAGGTGGCAGAGATCACAAACTCCTTACTTACCCCCGTGTCGCAGATCACAGACCGCCGGGCATAGGATGCGCAGCAGTTGGGCTTGTGACCTGCTTCACATGTACGCGATCTTCGTCGGGACGCACGGGGTTCGTGGGACGTGTGAGGCGGGAGTGCTCGCCCGACGCAACCTCCCCCAAGGTCTCGGCTCCGCTCGACCAGGGGGACCCCCATGCAGTCAGTGCCGACTGAGAGGAGCGAGGAGCGTGAA (double strand) [nuoA1 promoter EMSA probe]	binds	
